Experimental data published in patent US20020012669A1.

Target: CRF2-4/zcytor11 heterodimeric receptor on BaF3/CRF2-4/zcytor11 cells (human) (UniProt Q8N6P7)
Test: cell-based or functional assay

Chain of CRF2-4/zcytor11 heterodimeric receptor on BaF3/CRF2-4/zcytor11 cells (human) (Q8N6P7 16-574 limits assumed, chain 1 of 2): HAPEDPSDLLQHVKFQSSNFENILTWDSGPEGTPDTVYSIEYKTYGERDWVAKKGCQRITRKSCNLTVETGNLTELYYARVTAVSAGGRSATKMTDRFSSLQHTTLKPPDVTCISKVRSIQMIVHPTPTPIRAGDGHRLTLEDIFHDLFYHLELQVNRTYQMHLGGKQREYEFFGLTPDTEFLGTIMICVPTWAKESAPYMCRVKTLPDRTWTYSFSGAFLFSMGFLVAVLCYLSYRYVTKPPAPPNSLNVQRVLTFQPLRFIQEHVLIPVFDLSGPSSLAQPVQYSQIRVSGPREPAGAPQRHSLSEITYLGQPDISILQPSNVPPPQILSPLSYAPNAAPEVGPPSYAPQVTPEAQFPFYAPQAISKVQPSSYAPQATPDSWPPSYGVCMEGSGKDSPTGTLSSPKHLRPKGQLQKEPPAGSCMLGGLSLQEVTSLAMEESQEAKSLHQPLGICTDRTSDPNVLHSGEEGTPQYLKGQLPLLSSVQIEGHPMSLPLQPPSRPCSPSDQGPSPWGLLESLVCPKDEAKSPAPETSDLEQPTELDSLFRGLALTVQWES
Chain of CRF2-4/zcytor11 heterodimeric receptor on BaF3/CRF2-4/zcytor11 cells (human) (Q08334 20-325 limits assumed, chain 2 of 2, further chain): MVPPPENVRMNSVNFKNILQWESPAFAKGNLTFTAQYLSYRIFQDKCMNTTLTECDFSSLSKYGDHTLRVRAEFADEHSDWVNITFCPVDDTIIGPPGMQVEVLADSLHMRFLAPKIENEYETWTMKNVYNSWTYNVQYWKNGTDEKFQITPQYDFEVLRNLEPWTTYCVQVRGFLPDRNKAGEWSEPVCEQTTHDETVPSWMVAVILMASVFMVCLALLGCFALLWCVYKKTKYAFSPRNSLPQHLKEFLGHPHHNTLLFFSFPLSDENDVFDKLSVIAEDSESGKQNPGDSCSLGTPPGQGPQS

- Alamar Blue proliferation of BaF3/CRF2-4/zcytor11 cells, IL-TIF-CEE at 0.06 ng/ml (fold induction): 2
- Alamar Blue proliferation of BaF3/CRF2-4/zcytor11 cells, IL-TIF-CEE at 50 ng/ml (fold over background): 15
Substance: IL-TIF-CEE (human IL-TIF with C-terminal Glu-Glu tag) (from UniProt Q9GZX6 34-179) (ligand)
